Test results as given in the supplement of paper PMC10567573.

B1: PCDHGA10 (parent)
chain: FGIEIEVTDINDNAPKFQAENLDV
B2: FUT8 (parent)
chain: NWRYATGGWETVFRPVSETCTDRS

Variants of: B1
Assay: protein stability index of a GFP-peptide fusion (GPS, HEK-293T) (PSI 1-6); higher = more stable
Conditions: c terminus: a fixed tail appended
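Further: lentivirally expressed fusions sorted by FACS into six bins by GFP to DsRed ratio, PSI derived from sequencing read proportions per bin multiplied by bin number.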

Protein stability index, by site and new letter:
A19: D 3.56 | H 3.18 | T 2.84 | W 1.59
E4: V 2.24 | M 1.73 | Y 1.73 | F 1.66 | A 2.46 | K 2.11 | W 2.5 | I 1.75 | Q 2.47 | N 3.34 | C 2.6 | G 3.42
V24: I 2.56 | D 4.22 | L 3.43 | S 3.5 | Y 2.93 | F 2.64 | M 2.5
D9: N 2.73 | V 2.58 | S 1.85 | G 2.15 | I 1.32 | Y 3.18 | M 1.96 | Q 2.15 | P 2.53
N13: Y 1.78 | C 2.52 | R 2.67 | T 3.1 | M 2.08 | P 2.83 | H 2.36

Variants of: B2
Assay: as above
Conditions: c terminus: a fixed tail appended

Protein stability index: each site, then its substitutions
N1: G 2.12 | V 1.83 | I 3.1 | D 1.7 | T 1.68 | E 2.44 | Q 4.02 | S 2.12 | Y 2.88 | A 1.16 | R 2.23 | H 2.74 | K 2.4 | L 1.99 | C 2.35 | W 1.53 | M 1.12
R3: W 2.46 | F 1.97 | H 2.85 | N 3.83 | Y 1.76 | Q 3.15 | S 2.69 | P 3.06 | V 2.85 | E 3.75 | D 3.62 | A 3.58 | M 2.44 | I 2.32 | L 2.69 | C 2.76 | G 3 | T 3.09
Y4: T 3.27 | I 2.63 | N 3.32 | A 3.42 | C 2.6 | H 3.39 | G 4.34 | E 4.67 | V 3.42 | F 2.45 | Q 3.35 | R 3.07 | L 2.36 | S 3.66 | D 3.13 | P 3.85 | M 2.16 | W 2.98
T6: K 1.1 | Y 1.96 | S 1 | W 1.65 | D 2.72 | R 1.51 | Q 1.6 | L 1.73 | P 2.44 | I 2.63 | M 1.74 | V 2.11 | H 1.28 | N 1.48 | E 2.25
G8: C 1.55 | L 1.82 | F 1.53 | N 2.26 | A 1.84 | K 3.73 | I 1.48 | D 2.9 | E 2.22 | H 2.43 | M 2.01
G7: L 1.89 | P 2.19 | A 2.94 | H 2.22 | S 1.97 | T 2.12 | K 2.39 | M 1.81 | N 2.13 | R 1.75 | F 2.64 | Q 2.49 | C 2.08 | E 3.17 | Y 2.12 | W 1.59 | I 2.11
A5: F 2.43 | N 2.95 | C 1.05 | K 3.36 | D 3.2 | L 2.66 | H 3.69 | Y 2.94 | R 2.28 | I 1.39 | M 3.05 | E 2.82 | S 2.36 | W 3.33 | T 2.33 | P 1.48 | Q 2.91
W2: G 3.72 | V 3.26 | T 3.83 | F 3.12 | Q 3.96 | M 3.52 | N 3.55 | A 3.77 | E 3.94 | H 4 | C 2.52 | D 3.72 | S 3.25 | P 4.16 | Y 2.74
